Experimental data as given in PMC6066450.

Target: Neurabin (Nrb), endogenous in rat cortical neurons (rat (endogenous in primary cortical neurons)) (UniProt O35867)
Test: co-IP

UniProt O35867, sequence (O35867 whole entry): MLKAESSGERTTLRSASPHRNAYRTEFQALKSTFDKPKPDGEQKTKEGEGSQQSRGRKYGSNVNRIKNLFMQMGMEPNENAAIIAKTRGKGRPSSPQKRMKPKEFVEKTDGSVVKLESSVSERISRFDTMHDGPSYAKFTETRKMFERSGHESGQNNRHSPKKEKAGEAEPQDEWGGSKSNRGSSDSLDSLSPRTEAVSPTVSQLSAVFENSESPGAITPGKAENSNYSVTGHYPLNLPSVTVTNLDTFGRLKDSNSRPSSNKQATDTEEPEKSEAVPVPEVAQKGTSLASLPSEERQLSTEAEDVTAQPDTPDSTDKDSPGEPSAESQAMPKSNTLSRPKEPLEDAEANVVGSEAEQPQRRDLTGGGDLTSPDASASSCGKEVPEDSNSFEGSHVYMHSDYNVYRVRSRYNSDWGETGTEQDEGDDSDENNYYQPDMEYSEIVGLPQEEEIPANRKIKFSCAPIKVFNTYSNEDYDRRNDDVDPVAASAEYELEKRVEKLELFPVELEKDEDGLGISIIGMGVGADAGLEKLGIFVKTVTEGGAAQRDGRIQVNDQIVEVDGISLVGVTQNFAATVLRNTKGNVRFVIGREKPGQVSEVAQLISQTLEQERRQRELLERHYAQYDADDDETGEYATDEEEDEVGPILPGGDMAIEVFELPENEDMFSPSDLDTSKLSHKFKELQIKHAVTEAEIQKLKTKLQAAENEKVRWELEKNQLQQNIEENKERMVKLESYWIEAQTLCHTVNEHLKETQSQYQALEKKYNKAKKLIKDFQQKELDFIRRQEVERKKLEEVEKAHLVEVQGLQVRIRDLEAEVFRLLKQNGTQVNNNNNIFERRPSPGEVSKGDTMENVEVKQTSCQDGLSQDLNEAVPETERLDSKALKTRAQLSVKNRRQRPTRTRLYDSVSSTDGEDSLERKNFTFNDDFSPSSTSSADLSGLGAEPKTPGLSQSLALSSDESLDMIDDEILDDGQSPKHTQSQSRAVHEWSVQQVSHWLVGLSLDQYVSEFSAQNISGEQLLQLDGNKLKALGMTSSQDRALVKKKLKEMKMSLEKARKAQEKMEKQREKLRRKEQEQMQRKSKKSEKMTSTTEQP

## Protein phosphatase-1 (PP1), endogenous in rat cortical neurons (from UniProt P62138 1-330) (enzyme)
  PP1 co-IPed with Nrb after forskolin, percent of no forskolin control: 62.8%
